{
  "source": "patent US20110262525A1",
  "about": "“METHODS OF TREATMENT” (SCHERING CORPORATION, priority 2006, published 2011)",
  "molecules": {"B1": {"name": "LCF/HCA: fully human anti-IGF1R antibody comprising the mature 19D12/15H12 light chain F (LCF) and mature heavy chain A (HCA) (antibody, V domains shown)", "VH": "EVQLVQSGGGLVHPGGSLRLSCAASGFTFSSFAMHWVRQAPGKGLEWISVIDTRGATYYADSVKGRFTISRDNAKNSLYLQMNSLRAEDMAVYYCARLGNFYYGMDVWGQGTTVTVSS", "VL": "EIVLTQVPDFQSVTPKEKVTITCRASQSIGSSLHWYQQKPDQSPKLLIKYASQSLSGVPSRFSGSGSGTDFTLTINSLEAEDAAAYYCHQSSRLPHTFGGGTKVEIKRT"}},
  "key": {"[1]": {"test_system": "ALL-16 xenograft (ALL T-cell)", "assay": "PPTP in vivo leukemia xenograft ALL-16", "details": "ALL-16 (ALL T-cell) xenograft; 0.5 mg per mouse ip twice weekly for four weeks", "method": "(§1) The PPTP includes a molecularly characterized in vitro panel of cell lines (n=27) and in vivo panel of xenografts (n=61) representing most of the common types of childhood solid tumors and childhood ALL (acute lymphoblastic leukemia). LCF/HCA anti-IGF1R antibody was tested against the PPTP in vitro panel at concentrations ranging from 0.01 nM to 100 nM; and was tested against the PPTP in vivo panel at a dose of 0.5 mg per mouse administered twice weekly for four weeks via intraperitoneal injection. […]\n(§2) In vivo acute lymphoblastic leukemia testing: For each xenograft line, 8 mice were inoculated with 3-5×10^6 mononuclear cells purified from the spleens of secondary recipient mice. Engraftment was monitored weekly by flow cytometry, and treatment was initiated when the proportion of human CD45+ cells in the peripheral blood reached 1%. The proportion of human CD45+ cells in the peripheral blood was monitored weekly throughout the course of treatment. […]\n(§3) Median Group Response: Each individual mouse in each treatment group was assigned a response score (see Tables above) and a median score for the treatment group was calculated and then each treatment group was assigned an overall response according to the table below. […]"}, "[2]": {"test_system": "ALL-7 xenograft (ALL B-precursor)", "assay": "PPTP in vivo leukemia xenograft ALL-7", "details": "ALL-7 (ALL B-precursor) xenograft; 0.5 mg per mouse ip twice weekly for four weeks", "method": "as §1, §2, §3"}, "[3]": {"test_system": "NB-1771 xenograft (Neuroblastoma)", "assay": "PPTP in vivo xenograft NB-1771", "details": "NB-1771 (Neuroblastoma) xenograft, 0.5 mg per mouse ip twice weekly for four weeks", "method": "(§4) The PPTP includes a molecularly characterized in vitro panel of cell lines (n=27) and in vivo panel of xenografts (n=61) representing most of the common types of childhood solid tumors and childhood ALL (acute lymphoblastic leukemia). LCF/HCA anti-IGF1R antibody was tested against the PPTP in vitro panel at concentrations ranging from 0.01 nM to 100 nM; and was tested against the PPTP in vivo panel at a dose of 0.5 mg per mouse administered twice weekly for four weeks via intraperitoneal injection. Three measures of antitumor activity were used: 1) response criteria modeled after the clinical setting; 2) treated-to-control (T/C) tumor volume at day 21; and 3) a time to event (4-fold increase in tumor volume) measure based on the median EFS of treated and control lines (intermediate activity required EFS (event-free survival) T/C>2, and high activity additionally required a net reduction in median tumor volume at the end of the experiment).\n(§5) Stage 1 testing involved testing an agent across the entire PPTP panel of childhood cancer xenograft lines at its maximum tolerated dose (MTD) or at a dose selected based on PK/PD (pharmacokinetic/pharmacodynamic) studies using adult preclinical models.\n(§6) In vivo solid tumor testing: For each xenograft line, 10 mice bearing subcutaneous (SC) tumors initiated treatment when the tumors were between 0.2-0.5 cm^3 in volume. Two perpendicular tumor diameters were measured at once weekly intervals with digital vernier calipers. Assuming tumors to be spherical, volumes were calculated from the formula (π/6)×d3, where d represented the mean diameter.\n(§7) Drug: LCF/HCA was dissolved in 20mM sodium acetate pH 5 buffer containing 150 mM sodium chloride, and administered intraperitoneally twice weekly for 4 consecutive weeks at a dose of 0.5 mg per animal. […]\nas §3"}, "[4]": {"test_system": "D645 xenograft (Glioblastoma)", "assay": "PPTP in vivo xenograft D645", "parameters": "key to EFS activity notation (high, intermediate, indeterminate): high (!); intermediate (#); indeterminate (^)", "method": "as §4, §5, §6\n(§8) Drug: LCF/HCA was dissolved in 20mM sodium acetate pH 5 buffer containing 150 mM sodium chloride, and administered intraperitoneally twice weekly for 4 consecutive weeks at a dose of 0.5 mg per animal. The antibody was provided to each testing site in coded vials for blinded testing according the PPTP's standard operating procedures.\n(§9) Median Group Response: Each individual mouse in each treatment group was assigned a response score (see Tables above) and a median score for the treatment group was calculated and then each treatment group was assigned an overall response according to the table below.\n(§10) Statistical Methods: Event-free survival (EFS) distributions of each treatment group were compared to the EFS distribution of the respective control group using the exact log rank test. P-values were 2-sided & were not adjusted for multiple comparisons given the exploratory nature of this study. P-values<0.05 were considered to be significant."}, "[5]": {"test_system": "ALL-17 xenograft (ALL B-precursor)", "assay": "PPTP in vivo leukemia xenograft ALL-17", "parameters": "key to EFS activity notation (high, intermediate, indeterminate): high (!); intermediate (#); indeterminate (^)", "details": "ALL-17 (ALL B-precursor) xenograft; 0.5 mg per mouse ip twice weekly for four weeks", "method": "as §4, §5\nIn vivo acute lymphoblastic leukemia testing: For each xenograft line, 8 mice were inoculated with 3-5×10^6 mononuclear cells purified from the spleens of secondary recipient mice. Engraftment was monitored weekly by flow cytometry, and treatment was initiated when the proportion of human CD45+ cells in the peripheral blood reached 1%. The proportion of human CD45+ cells in the peripheral blood was monitored weekly throughout the course of treatment.\nas §8, §9, §10"}, "[6]": {"test_system": "NB-1691 xenograft (Neuroblastoma)", "assay": "PPTP in vivo xenograft NB-1691", "details": "NB-1691 (Neuroblastoma) xenograft, 0.5 mg per mouse ip twice weekly for four weeks", "method": "as §4, §5, §6, §7, §3"}, "[7]": {"test_system": "OS-33 xenograft (Osteosarcoma)", "assay": "PPTP in vivo xenograft OS-33", "details": "OS-33 (Osteosarcoma) xenograft, 0.5 mg per mouse ip twice weekly for four weeks", "text": "The PPTP includes a molecularly characterized in vitro panel of cell lines (n=27) and in vivo panel of xenografts (n=61) representing most of the common types of childhood solid tumors and childhood ALL (acute lymphoblastic leukemia).\nas §5, §6\nThe antibody was provided to each testing site in coded vials for blinded testing according the PPTP's standard operating procedures.\nas §9, §10"}, "[8]": {"test_system": "OS-1 xenograft (Osteosarcoma)", "assay": "PPTP in vivo xenograft OS-1", "parameters": "key to EFS activity notation (high, intermediate, indeterminate): high (!); intermediate (#); indeterminate (^)", "details": "OS-1 (Osteosarcoma) xenograft, 0.5 mg per mouse ip twice weekly for four weeks", "method": "as §4, §5, §6, §7, §3"}, "[9]": {"test_system": "KT-16 xenograft (Rhabdoid)", "assay": "PPTP in vivo xenograft KT-16", "details": "KT-16 (Rhabdoid) xenograft, 0.5 mg per mouse ip twice weekly for four weeks", "method": "as §4, §5, §6, §7, §3"}, "[10]": {"test_system": "OS-2 xenograft (Osteosarcoma)", "assay": "PPTP in vivo xenograft OS-2", "parameters": "key to EFS activity notation (high, intermediate, indeterminate): high (!); intermediate (#); indeterminate (^)", "details": "OS-2 (Osteosarcoma) xenograft, 0.5 mg per mouse ip twice weekly for four weeks", "method": "as §4, §5, §6, §8, §9, §10"}, "[11]": {"test_system": "Rh18 xenograft (EMB Rhabdomyosarcoma)", "assay": "PPTP in vivo xenograft Rh18", "method": "as §4, §5, §6, §7, §3"}, "[12]": {"test_system": "NB-1643 xenograft (Neuroblastoma)", "assay": "PPTP in vivo xenograft NB-1643", "details": "NB-1643 (Neuroblastoma) xenograft, 0.5 mg per mouse ip twice weekly for four weeks", "method": "as §4, §5, §6, §8, §9, §10"}, "[13]": {"test_system": "Human melanoma cells (A375-SM)", "assay": "Cell-Titer Glo assay, A375-SM melanoma", "format": "cell-based", "details": "0.000256-100 nM antibody"}, "[14]": {"details": "0.5 mg per mouse ip twice weekly for four weeks"}, "[15]": {"details": "day 21, 0.5 mg per mouse ip twice weekly for four weeks"}},
  "note": "Marks after values point to notes of the source that are not given here.",
  "data": [
    {"molecule": "B1", "values": [
      {"measurement": "EFS T/C", "setting": "[1]", "value": 1},
      {"measurement": "Median Final RTV", "setting": "[1]", "value": ">25"},
      {"measurement": "EFS T/C", "setting": "[2]", "value": 1},
      {"measurement": "Median Final RTV", "setting": "[2]", "value": ">25"},
      {"measurement": "EFS T/C", "setting": "[3]", "value": 1.1},
      {"measurement": "Median Final RTV", "setting": "[3]", "value": ">4"},
      {"measurement": "Tumor Volume T/C", "setting": "[3]; day 21", "value": 0.64},
      {"measurement": "EFS T/C", "setting": "[4]; [14]", "value": 2.2},
      {"measurement": "EFS activity notation (high, intermediate, indeterminate)", "setting": "[4]; [14]", "value": "#"},
      {"measurement": "Median Final RTV", "setting": "[4]; [14]", "value": ">4#"},
      {"measurement": "Overall Group Response", "setting": "[4]; [14]", "value": "PD2 (1 < MS ≦ 3)"},
      {"measurement": "Tumor Volume T/C", "setting": "[4]; [15]", "value": 0.58},
      {"measurement": "EFS T/C", "setting": "[5]", "value": 3.1},
      {"measurement": "EFS activity notation (high, intermediate, indeterminate)", "setting": "[5]", "value": "#"},
      {"measurement": "Median Final RTV", "setting": "[5]", "value": ">25#"},
      {"measurement": "Overall Group Response", "setting": "[5]", "value": "PD2 (1 < MS ≦ 3)"},
      {"measurement": "EFS T/C", "setting": "[6]", "value": 0.9},
      {"measurement": "Median Final RTV", "setting": "[6]", "value": ">4"},
      {"measurement": "Tumor Volume T/C", "setting": "[6]; day 21", "value": 1.34},
      {"measurement": "EFS T/C", "setting": "[7]", "value": 0.9},
      {"measurement": "Median Final RTV", "setting": "[7]", "value": ">4"},
      {"measurement": "Tumor Volume T/C", "setting": "[7]; day 21", "value": 0.79},
      {"measurement": "EFS T/C", "setting": "[8]", "value": "> 1.3"},
      {"measurement": "EFS activity notation (high, intermediate, indeterminate)", "setting": "[8]", "value": "^"},
      {"measurement": "Tumor Volume T/C", "setting": "[8]; day 21", "value": 0.16},
      {"measurement": "EFS T/C", "setting": "[9]", "value": 1.2},
      {"measurement": "Median Final RTV", "setting": "[9]", "value": ">4"},
      {"measurement": "Tumor Volume T/C", "setting": "[9]; day 21", "value": 0.5},
      {"measurement": "EFS T/C", "setting": "[10]", "value": 2.3},
      {"measurement": "EFS activity notation (high, intermediate, indeterminate)", "setting": "[10]", "value": "#"},
      {"measurement": "Median Final RTV", "setting": "[10]", "value": ">4#"},
      {"measurement": "Overall Group Response", "setting": "[10]", "value": "PD2 (1 < MS ≦ 3)"},
      {"measurement": "Tumor Volume T/C", "setting": "[10]; day 21", "value": 0.5},
      {"measurement": "EFS T/C", "setting": "[11]; [14]", "value": 1},
      {"measurement": "Median Final RTV", "setting": "[11]; [14]", "value": ">4"},
      {"measurement": "Tumor Volume T/C", "setting": "[11]; [15]", "value": 0.74},
      {"measurement": "EFS T/C", "setting": "[12]", "value": 1.8},
      {"measurement": "Median Final RTV", "setting": "[12]", "value": ">4"},
      {"measurement": "Overall Group Response", "setting": "[12]", "value": "PD2 (1 < MS ≦ 3)"},
      {"measurement": "Tumor Volume T/C", "setting": "[12]; day 21", "value": 0.53},
      {"measurement": "in vitro growth of melanoma cell line", "setting": "[13]", "value": "in vitro growth inhibition"}
    ]}
  ]
}
